The target in assay [1] is T1, KPGVISVMGT, last 10 amino acids of the type VI collagen α3 chain (selection / immunogenic peptide).
T1 construct: also called PRO-C6
T1 peptide: KPGVISVMGT
In words: screening of hybridoma cell lines against peptides. The method, then:
(§1) Mouse spleen cells were fused with SP2/0 myeloma fusion partner cells. The fusion cells were raised in 96-well plates and incubated in the CO2-incubator. Here standard limited dilution was used to promote monoclonal growth. Cell lines specific to the selection peptide and without cross-reactivity to either elongated peptide ([…] (SEQ ID No: 2), Chinese Peptide Company, China) or truncated peptide ([…] (SEQ ID No: 3), American Peptide Company, USA) were selected and sub-cloned. At last the antibodies were purified using an IgG column.

For assay [2], the target named is T2, elongated peptide KPGVISVMGTA
T2 peptide: KPGVISVMGTA
As to the kind of experiment: screening of hybridoma cell lines against peptides. On the procedure: as §1

Assay [3] concerns the target T3, truncated peptide KPGVISVMG
T3 peptide: KPGVISVMG
As to the kind of experiment: screening of hybridoma cell lines against peptides. The method, then:
as §1

In assay [4] the target is T4, CPTGPQNYSP, C-terminal neo-epitope sequence of the α1 chain PIIINP (free calibrator peptide).
T4 construct: also called PRO-C3
T4 peptide: CPTGPQNYSP
In words: hybridoma screening, indirect ELISA on streptavidin-coated plates with the free peptide as calibrator. The method, then:
A monoclonal antibody specific for Pro-C3 was developed as described in WO 2014/170312 (Nordic Bioscience, incorporated herein by reference) using sequence 145′-[…]-′153 (SEQ ID No: 14) of the α1 chain PIIINP as an immunogenic peptide. Briefly, generation of monoclonal antibodies was initiated by subcutaneous immunization of 4-5 week old Balb/C mice with 200 μl emulsified antigen and 50 μg PIIINP neo-epitope C-terminus sequence (OVA-CGG-[…] (SEQ ID No: 32)) using Freund's incomplete adjuvant. The immunizations were repeated every 2 weeks until stable serum titer levels were reached. The spleen cells were fused with SP2/0 myeloma cells to produce hybridoma, and cloned in culture dishes using the semi-medium method. The supernatants were screened for reactivity against calibrator peptide and native material in an indirect ELISA using streptavidin-coated plates. Biotin-CGG-[…] (SEQ ID No: 33) was used as screening peptide, while the free peptide […] (SEQ ID No: 14) was used as calibrator to test for further specificity of clones.

B1: monoclonal antibody specific for Pro-C6 (monoclonal antibody 10A3) (antibody, mouse IgG1, kappa, V domains shown)
VH: EVQLQQSGPVMVKPGTSVKTSCKASGYTFTDFNMNWVKQSHGKSLEWIGAINPHNGATSYNQKFSGKATLTVDKSSSTAYMELNSLTSDDSAVYYCARWGNGKNSWGQGTTLTVSS
VL: DVVMTQTPLSLPVNLGDQASISCRSSQRIVHSNGITFLEWYLQKPGQSPKLLIYRVSNRFSGVPDRFSGSGSGTDFTLKISRVEAEDLGLYYCFQGSHVPLTFGAGTRLELKR
notes: Mouse IgG1 / kappa from a hybridoma; the antibodies were purified on an IgG column afterwards; also called PRO-C6 antibody
For B1, the binding result was “binds” in assay [1], “no binding” in assay [2] and “no binding” in assay [3].

B2: monoclonal antibody specific for Pro-C3 (monoclonal antibody NB61N-62) (antibody, V domains shown)
VH: EVQLQQSGPEVLKPGASVKMSCKASGYTFINYVIHWLKQKAGQGPEWIGYMNPYNDVPKNNAKFRGKARLTSDRSSTTAYMELNSLTSEDSAVYYCARGGFFGPLSYWGQGTLVTVSA
VL: DVLMTQTPLSLSVSLGDQASISCRSSQNIVYSNGDTYFEWYLQKPGQSPKLLIYKVSQRFSGVPDRFSGSGSGTDFTLKISRVETEDLGVYYCFQGAHDPPAFGGGTKLELKR
notes: Mouse IgG2A / kappa; also called PRO-C3 antibody
In the case of B2, the binding result in assay [4] is “binds”.

(Values after patent US20220317133A1 (NORDIC BIOSCIENCE A S, published 2022).)
